Results reported in US20140274782A1, “AFFINITY REAGENTS AND METHODS FOR DETECTION, PURIFICATION, AND PROTEOMIC ANALYSIS OF METHYLATED PROTEINS” (The Board of Trustees of the Leland Stanford Junior …, priority 2013, published 2014).

Biological target: T1, G9a and GLP (Homo sapiens, UniProt Q96KQ7+Q9H9B1)
T1 construct: endogenous in cells; host or cells: HEK 293T
T1 sequence (Q96KQ7 2-1210 limits assumed): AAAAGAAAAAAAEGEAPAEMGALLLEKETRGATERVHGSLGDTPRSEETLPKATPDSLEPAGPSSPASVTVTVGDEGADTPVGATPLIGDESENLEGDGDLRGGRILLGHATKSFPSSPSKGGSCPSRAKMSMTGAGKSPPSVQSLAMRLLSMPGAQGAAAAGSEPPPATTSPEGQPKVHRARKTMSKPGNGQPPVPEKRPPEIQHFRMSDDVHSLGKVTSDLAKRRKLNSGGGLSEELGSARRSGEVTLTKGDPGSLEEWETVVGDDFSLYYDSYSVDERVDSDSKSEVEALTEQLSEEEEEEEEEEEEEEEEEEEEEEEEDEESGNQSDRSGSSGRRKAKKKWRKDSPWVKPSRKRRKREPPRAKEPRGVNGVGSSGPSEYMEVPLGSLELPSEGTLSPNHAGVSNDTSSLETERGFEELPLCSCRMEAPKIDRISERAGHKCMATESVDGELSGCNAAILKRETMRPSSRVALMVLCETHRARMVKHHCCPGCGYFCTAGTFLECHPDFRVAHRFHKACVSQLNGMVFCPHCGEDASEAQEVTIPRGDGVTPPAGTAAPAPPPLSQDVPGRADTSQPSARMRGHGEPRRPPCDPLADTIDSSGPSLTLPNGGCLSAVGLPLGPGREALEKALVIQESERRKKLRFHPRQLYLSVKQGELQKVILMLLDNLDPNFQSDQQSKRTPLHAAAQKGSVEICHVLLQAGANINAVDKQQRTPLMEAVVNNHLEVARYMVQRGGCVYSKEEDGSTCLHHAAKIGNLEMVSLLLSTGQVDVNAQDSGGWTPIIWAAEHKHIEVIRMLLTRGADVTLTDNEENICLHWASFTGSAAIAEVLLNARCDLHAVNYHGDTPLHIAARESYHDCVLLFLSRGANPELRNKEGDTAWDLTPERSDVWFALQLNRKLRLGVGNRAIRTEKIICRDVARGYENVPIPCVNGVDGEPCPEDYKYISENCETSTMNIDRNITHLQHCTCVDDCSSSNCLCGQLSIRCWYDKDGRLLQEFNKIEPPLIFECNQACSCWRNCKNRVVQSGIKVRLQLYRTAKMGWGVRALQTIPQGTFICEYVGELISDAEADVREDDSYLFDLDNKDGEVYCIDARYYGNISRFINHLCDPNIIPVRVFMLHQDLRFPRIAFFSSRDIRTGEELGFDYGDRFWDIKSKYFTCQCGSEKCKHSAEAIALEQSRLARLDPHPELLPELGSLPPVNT
T1 sequence (Q9H9B1 2-1298 limits assumed): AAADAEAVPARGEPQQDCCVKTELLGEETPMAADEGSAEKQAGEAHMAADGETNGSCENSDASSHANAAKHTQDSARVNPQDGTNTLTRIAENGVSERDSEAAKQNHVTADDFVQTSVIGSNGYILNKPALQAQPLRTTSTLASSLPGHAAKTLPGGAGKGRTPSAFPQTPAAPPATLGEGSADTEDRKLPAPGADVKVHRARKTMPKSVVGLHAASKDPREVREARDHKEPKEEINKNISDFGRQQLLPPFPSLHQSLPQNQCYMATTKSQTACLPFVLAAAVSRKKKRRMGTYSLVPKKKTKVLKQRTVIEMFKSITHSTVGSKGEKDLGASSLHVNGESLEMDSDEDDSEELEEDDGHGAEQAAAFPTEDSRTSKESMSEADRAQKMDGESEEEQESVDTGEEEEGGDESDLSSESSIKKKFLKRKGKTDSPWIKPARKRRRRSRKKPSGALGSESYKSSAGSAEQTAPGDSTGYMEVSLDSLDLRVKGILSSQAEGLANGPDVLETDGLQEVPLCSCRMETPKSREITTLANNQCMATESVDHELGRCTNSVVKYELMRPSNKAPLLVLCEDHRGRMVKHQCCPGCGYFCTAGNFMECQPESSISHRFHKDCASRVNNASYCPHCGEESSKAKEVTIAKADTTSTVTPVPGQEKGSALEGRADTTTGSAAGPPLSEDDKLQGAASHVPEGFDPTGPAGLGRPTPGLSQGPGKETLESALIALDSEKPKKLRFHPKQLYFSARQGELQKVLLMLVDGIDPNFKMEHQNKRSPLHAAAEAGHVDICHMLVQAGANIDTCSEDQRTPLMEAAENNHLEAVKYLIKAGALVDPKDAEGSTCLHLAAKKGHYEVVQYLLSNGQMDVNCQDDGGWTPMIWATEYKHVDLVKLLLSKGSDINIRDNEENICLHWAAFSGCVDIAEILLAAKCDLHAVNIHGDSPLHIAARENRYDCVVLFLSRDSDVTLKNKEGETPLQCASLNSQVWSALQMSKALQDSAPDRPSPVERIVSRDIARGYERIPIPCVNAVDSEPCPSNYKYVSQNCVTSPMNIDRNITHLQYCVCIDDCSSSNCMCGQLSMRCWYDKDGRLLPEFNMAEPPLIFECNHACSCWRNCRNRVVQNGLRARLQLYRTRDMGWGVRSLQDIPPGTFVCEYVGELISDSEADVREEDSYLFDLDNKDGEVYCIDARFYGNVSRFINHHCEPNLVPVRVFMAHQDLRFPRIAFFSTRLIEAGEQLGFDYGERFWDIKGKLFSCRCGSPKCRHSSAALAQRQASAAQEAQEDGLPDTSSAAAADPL
Experiment: Triple SILAC pull-down after UNC0638 treatment of 293T cells, DMSO/UNC0638 ratio of protein captured by 3×MBT;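 note: mass spectrometry (Q-Exactive) SILAC quantitation, DMSO/UNC0638 ratio computed after subtracting 3×MBTD355N mutant pull-down background, only proteins with at least twofold 3×MBT over mutant signal considered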
Format: cell-based
Conditions: for Relative to UNC0638 UNC Heavy / Relative to UNC0638 UNC Light: SILAC ratio DMSO/UNC0638 of protein pulled down with 3xMBT; for Relative to UNC0638 UNC Heavy: UNC0638 in heavy SILAC media; for Relative to UNC0638 UNC Light: UNC0638 in light SILAC media; for Protein Ratios DMSO/UNC0638: SILAC ratio of protein captured by 3xMBT, 293T cells treated 24 hours with UNC0638 at 2.5 μM or DMSO; for Relative to UNC0638 Average: average of UNC Light and UNC Heavy experiments; for Candidate G9a/GLP target: reduced association with 3xMBT after UNC0638 treatment

Substance | Relative to UNC0638 UNC Heavy | Relative to UNC0638 UNC Light | Protein Ratios DMSO/UNC0638 | Relative to UNC0638 Average | Candidate G9a/GLP target
DNA ligase 1 | 0.83 log base 2 | 1.06 log base 2 | 1.9 | 0.95 log base 2 | ✓
RBM25: protein with methylated lysine identified in 3xMBT pull-down | 0.25 log base 2 | 0.29 log base 2 | – | 0.27 log base 2 | –
MCM7: protein with methylated lysine identified in 3xMBT pull-down | 0.12 log base 2 | 0.10 log base 2 | – | 0.11 log base 2 | –
SSRP1: protein with methylated lysine identified in 3xMBT pull-down | 0.00 log base 2 | 0.26 log base 2 | – | 0.13 log base 2 | –
Protein Wiz | 0.83 log base 2 | 0.29 log base 2 | 1.5 | 0.56 log base 2 | ✓
MSH6: protein with methylated lysine identified in 3xMBT pull-down | 0.18 log base 2 | 0.06 log base 2 | – | 0.12 log base 2 | –
